The record followed here is CN116535503A.

Bounds are passed on as bounds.

For test [1], the target named is GDF15-HIS(百普赛斯，CAT#:GD5-H5149) (human) (UniProt Q99988). Put plainly: cell-based or functional assay.
The target is the same in test [2]. Kind of test: BLI (ForteBio Octet), antibody captured at 10 μg/ml, GDF15 6.25-200 nM. A general note: BLI is a label-free optical method that tracks binding on a fibre tip over time.
Test [3] has the same target. Kind of test: ELISA, GDF15-HIS coated. A general note: In an ELISA, binding on a coated surface is turned into a signal by an enzyme label.
In test [4] the target is GDF15-mFC蛋白(GDF15:Genbank登记号NM_004864.3;mFC:Genbank登记号AAH31470.1) (human; mouse) (UniProt Q99988). Kind of test: competition ELISA: blocks GDF15-mFC binding to coated GFRAL-hFc.

By Kd is commonly meant the constant that tells how readily two partners part at equilibrium. As usually defined, the koff is a measure of how fast the partners let go of each other. A higher koff goes with a short-lived complex. One may read the kon as the second-order rate constant of association. For orientation: EC50 means the midpoint of the concentration-response curve. Usually IC50 stands for the concentration that gives 50% inhibition. A higher IC50 goes with lower potency.

Chain of GDF15-HIS(百普赛斯，CAT#:GD5-H5149) (human) (Q99988 197-308 limits assumed): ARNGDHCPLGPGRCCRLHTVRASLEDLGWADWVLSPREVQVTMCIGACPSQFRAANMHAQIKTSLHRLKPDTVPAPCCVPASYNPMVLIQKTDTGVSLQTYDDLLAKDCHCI

For the substance “Ponsegromab(Pfizer;Drug Bank:D11909) (antibody)”, in test [1], the Bottom (fold luciferase activity), HEK293 SRE-LUC2-cRET-GFRAL reporter cells is 1.07 and the IC50(μg/ml), luciferase in HEK293 SRE-LUC2-cRET-GFRAL reporter cells stimulated with 5 ng/ml GDF15-His turned out to be 0.0321 µg/mL. In test [2], this substance displayed a dissociation constant (Kd) below 1 pM, a koff below 1e-07 s⁻¹ and a kon of 711000 M⁻¹ s⁻¹. Besides, in test [3], the EC50 amounted to 0.096 µg/mL and the OD450.Max came out at 1.1 OD450. Also, in test [4], the IC50 amounted to 0.504 µg/mL and the OD450.Max was 1.02 OD450.
